Legend:
[1] = target: GST-fused human V158 FcγRIIIa (extracellular region) (human) (UniProt P08637); test: AlphaScreen competition vs biotin-WT AC10
[2] = target: GST-fused human V158 FcγRIIIa (extracellular region) (human) (UniProt P08637); test: SPR, GST-FcγRIIIa V158 on chip

Chain of GST-fused human V158 FcγRIIIa (extracellular region) (human) (P08637 17-208 F176V): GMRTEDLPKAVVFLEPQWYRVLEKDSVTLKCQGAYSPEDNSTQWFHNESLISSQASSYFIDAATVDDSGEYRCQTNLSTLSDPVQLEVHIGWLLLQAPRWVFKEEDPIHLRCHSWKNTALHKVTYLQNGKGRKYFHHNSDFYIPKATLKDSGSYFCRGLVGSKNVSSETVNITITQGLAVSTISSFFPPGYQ

Substance: AC10 WT (H0/L0) full length antibody
- IC50 [1]: 87.2 nM
- Kd [2]: 18.6 nM

Reference: patent US7657380
